In the Human Domainome abundance scans (Beltran et al. 2025):
± gives the uncertainty stated by the source.

B1: Formin-binding protein 4, residues 593 to 636; numbered along this chain, Q8N3X1 (parent)
chain: EINATPKGWSCHWDRDHRRYFYVNEQSGESQWEFPDGEEEEEES

Variants of: B1
Test: abundance fitness (aPCA) (normalised: wild type 0, dead -1); higher = more abundant; growth selection in yeast, the domain comes from the species named
Details: Homo sapiens

Abundance fitness: each site, then its substitutions
E40: P -0.011 ± 0.061; M -0.127 ± 0.084; G 0.012 ± 0.054; K -0.004 ± 0.09; W -0.101 ± 0.078; D -0.158 ± 0.13; F -0.144 ± 0.15; Y 0.114 ± 0.22; V 0.056 ± 0.061; A 0.038 ± 0.067; Q -0.033 ± 0.071; R -0.035 ± 0.058; N -0.057 ± 0.11; T 0.151 ± 0.1; L 0.008 ± 0.061
S30: G -0.023 ± 0.078; H -0.354 ± 0.17; I 0.082 ± 0.13; M 0.04 ± 0.17; P -0.174 ± 0.083; Q 0.15 ± 0.12; A 0.014 ± 0.071; R 0.27 ± 0.081; V 0.094 ± 0.072; F -0.066 ± 0.36; K 0.274 ± 0.16; T 0.067 ± 0.083; W 0.02 ± 0.11; E -0.04 ± 0.084; L -0.03 ± 0.1
Y20: G -0.605 ± 0.063; P -0.143 ± 0.1; V -0.206 ± 0.068; T -0.277 ± 0.11; D -0.64 ± 0.13; R -0.229 ± 0.068; A -0.3 ± 0.065; S -0.353 ± 0.08; N -0.059 ± 0.25; Q -0.285 ± 0.16; K -0.319 ± 0.28; C -0.196 ± 0.12; W 0.072 ± 0.07; E -0.488 ± 0.078; M -0.205 ± 0.12
E25: K 0.477 ± 0.27; Q 0.006 ± 0.14; H -0.251 ± 0.12; G -0.316 ± 0.073; W -0.648 ± 0.095; D 0.144 ± 0.13; V -0.17 ± 0.094; S -0.365 ± 0.14; C -0.355 ± 0.29; T -0.119 ± 0.13; P -0.449 ± 0.14; A -0.179 ± 0.078; M -0.253 ± 0.12; R -0.175 ± 0.067
D36: N -0.273 ± 0.16; A -0.04 ± 0.067; E -0.113 ± 0.085; I -0.07 ± 0.13; P -0.025 ± 0.071; F -0.232 ± 0.11; V -0.044 ± 0.064; Q -0.063 ± 0.072; S 0.003 ± 0.068; C -0.097 ± 0.095; H -0.087 ± 0.083; L -0.176 ± 0.065; R -0.012 ± 0.062; M -0.09 ± 0.079; W -0.262 ± 0.073; Y -0.494 ± 0.13; K -0.076 ± 0.12; T -0.137 ± 0.081
F34: M -0.07 ± 0.096; H -0.011 ± 0.11; T 0.013 ± 0.09; W -0.13 ± 0.07; G -0.392 ± 0.065; V -0.044 ± 0.07; K 0.222 ± 0.095; N -0.635 ± 0.13; E -0.074 ± 0.088; P 0.071 ± 0.076; D -0.222 ± 0.1; Q 0.015 ± 0.089; C -0.035 ± 0.096; L 0.015 ± 0.061; R 0.081 ± 0.057; S -0.282 ± 0.087; A -0.059 ± 0.072; Y -0.084 ± 0.12
R19: Q -0.092 ± 0.11; T -0.621 ± 0.2; P -1.24 ± 0.3; M -0.21 ± 0.11; Y -0.864 ± 0.21; G -0.485 ± 0.07; N -0.506 ± 0.25; K -0.058 ± 0.088; V -0.491 ± 0.077; S -0.391 ± 0.14; L -0.423 ± 0.12
G37: E -0.095 ± 0.084; A -0.032 ± 0.067; M -0.216 ± 0.13; H -0.021 ± 0.12; Q -0.089 ± 0.094; T -0.026 ± 0.081; L -0.151 ± 0.071; W -0.154 ± 0.072; I -0.232 ± 0.14; S -0.112 ± 0.07; D -0.266 ± 0.18; P -0.034 ± 0.097; R -0.222 ± 0.068; V -0.007 ± 0.068; C -0.088 ± 0.086
V23: M -0.331 ± 0.14; E -0.26 ± 0.073; T 0.324 ± 0.21; R -0.039 ± 0.058; A -0.347 ± 0.071; G -0.607 ± 0.059; C -0.765 ± 0.21; Q -0.179 ± 0.093; F -0.367 ± 0.14; D -0.513 ± 0.14; K 0.074 ± 0.11; P -0.736 ± 0.11; L -0.024 ± 0.082
Q31: K -0.32 ± 0.11; I -0.472 ± 0.1; M -0.451 ± 0.12; N -0.742 ± 0.33; P -0.819 ± 0.18; C -0.129 ± 0.093; H -0.47 ± 0.087; L -0.383 ± 0.07; S -0.293 ± 0.087; T -0.115 ± 0.078; E -0.707 ± 0.081; R -0.075 ± 0.059; V -0.153 ± 0.061; F -0.416 ± 0.082; W -0.613 ± 0.062; A -0.377 ± 0.065
W32: H -0.157 ± 0.25; L -0.002 ± 0.07; K -0.246 ± 0.079; A -0.226 ± 0.079; G -0.28 ± 0.061; D -0.364 ± 0.14; F 0.047 ± 0.15; M -0.243 ± 0.098; C -0.305 ± 0.11; R -0.324 ± 0.064; E -0.273 ± 0.086; V -0.093 ± 0.091; I 0.001 ± 0.13; S -0.23 ± 0.066; Y -0.169 ± 0.12
G28: K -0.199 ± 0.2; Q -0.337 ± 0.11; F -1.22 ± 0.23; T -0.728 ± 0.079; E -0.702 ± 0.1; W -1.14 ± 0.12; R -0.438 ± 0.079; V -0.932 ± 0.085; S -0.553 ± 0.075; M -0.611 ± 0.13; D -0.682 ± 0.11; C -0.61 ± 0.12; A -0.567 ± 0.076; L -0.363 ± 0.071
S27: F -0.988 ± 0.17; N -0.453 ± 0.47; G -0.458 ± 0.11; R -0.422 ± 0.09; K -0.485 ± 0.18; Q -0.613 ± 0.12; W -1.52 ± 0.45; P -1.02 ± 0.19; M -0.641 ± 0.12; A -0.611 ± 0.08; T 0.022 ± 0.072; C -0.681 ± 0.28; E -0.427 ± 0.091; D -0.551 ± 0.14
Y22: N -0.092 ± 0.29; T -0.402 ± 0.12; M -0.492 ± 0.16; G -0.544 ± 0.081; K 0.291 ± 0.34; S -0.322 ± 0.087; V -0.692 ± 0.075; W 0.035 ± 0.08; D -0.552 ± 0.17; Q -0.439 ± 0.099; A -0.572 ± 0.079; I -0.515 ± 0.17; E -0.482 ± 0.2
E29: M -0.058 ± 0.096; N -0.421 ± 0.31; W -0.559 ± 0.093; D -0.388 ± 0.26; T -0.269 ± 0.3; V -0.126 ± 0.079; Q -0.027 ± 0.079; H -0.016 ± 0.094; P -0.883 ± 0.12; G -0.253 ± 0.07; I -0.062 ± 0.13; L -0.129 ± 0.094; C -0.575 ± 0.18; A -0.052 ± 0.081
E33: M -0.341 ± 0.09; V -0.456 ± 0.068; I -0.284 ± 0.28; K -0.232 ± 0.062; C -0.355 ± 0.25; A -0.064 ± 0.062; W -0.429 ± 0.063; Q -0.009 ± 0.085; G -0.168 ± 0.067; D -0.237 ± 0.15; P -0.59 ± 0.083; F -0.497 ± 0.081; N 0.031 ± 0.094; S -0.184 ± 0.082; H -0.408 ± 0.17; T -0.078 ± 0.08; R -0.241 ± 0.055; L -0.401 ± 0.072; Y -0.892 ± 0.24
N24: F -0.687 ± 0.31; I -1.14 ± 0.15; R -0.359 ± 0.058; C -0.226 ± 0.18; Y -0.998 ± 0.16; W -0.726 ± 0.082; G -0.611 ± 0.059; M -0.984 ± 0.099; K -0.23 ± 0.13; A -0.62 ± 0.068; E -0.335 ± 0.082; L -1 ± 0.082; T -0.63 ± 0.14; V -1.08 ± 0.072; D -0.362 ± 0.085; Q -0.41 ± 0.084; S -0.315 ± 0.079
E39: G -0.057 ± 0.063; Q 0.074 ± 0.078; K 0.048 ± 0.075; C 0.048 ± 0.1; V 0.008 ± 0.059; M -0.109 ± 0.083; P 0.041 ± 0.069; D -0.128 ± 0.14; I -0.074 ± 0.2; R -0.068 ± 0.061; L 0.075 ± 0.067; T 0.11 ± 0.084; S -0.056 ± 0.072; F -0.155 ± 0.11; W -0.191 ± 0.074; N 0.052 ± 0.096
F21: L -0.051 ± 0.083; G -0.368 ± 0.058; E -0.145 ± 0.089; K -0.067 ± 0.11; T -0.111 ± 0.16; A -0.179 ± 0.064; H -0.391 ± 0.11; W -0.275 ± 0.086; P -0.303 ± 0.093; R 0.187 ± 0.06; Q -0.223 ± 0.19; M -0.048 ± 0.16; C 0.058 ± 0.087; V 0.113 ± 0.067
E38: R -0.023 ± 0.059; Q 0.061 ± 0.077; V 0.008 ± 0.084; Y -0.316 ± 0.39; W -0.314 ± 0.13; P 0.056 ± 0.07; S 0.045 ± 0.07; M 0.058 ± 0.087; A 0.018 ± 0.066; C -0.047 ± 0.071; F -0.217 ± 0.12; T -0.014 ± 0.066; H -0.2 ± 0.12; G -0.051 ± 0.072; I -0.021 ± 0.16
E41: G 0.041 ± 0.059; K -0.048 ± 0.11; A 0.012 ± 0.063; D -0.28 ± 0.13; F -0.079 ± 0.11; C 0.016 ± 0.084
Q26: M -0.242 ± 0.18; H -0.266 ± 0.2; T -0.104 ± 0.12; V -0.19 ± 0.099; K 0.18 ± 0.11; A 0.017 ± 0.071; P -1.06 ± 0.24; F -0.015 ± 0.29; G -0.199 ± 0.063; R -0.085 ± 0.067; C 0.133 ± 0.25; L -0.137 ± 0.083; S -0.071 ± 0.081
P35: S -0.651 ± 0.095; Y -0.995 ± 0.18; T -0.753 ± 0.099; W -0.782 ± 0.094; G -0.611 ± 0.062; M -0.734 ± 0.13; D -0.712 ± 0.092; F -0.854 ± 0.23; R -0.661 ± 0.065; V -0.583 ± 0.071; K -0.482 ± 0.098; L -0.801 ± 0.076; A -0.455 ± 0.066; N -0.74 ± 0.11
